Patent US20230295297A1

T1: mouse TREM2 on cells (mouse), Q99NH8
T1 chain: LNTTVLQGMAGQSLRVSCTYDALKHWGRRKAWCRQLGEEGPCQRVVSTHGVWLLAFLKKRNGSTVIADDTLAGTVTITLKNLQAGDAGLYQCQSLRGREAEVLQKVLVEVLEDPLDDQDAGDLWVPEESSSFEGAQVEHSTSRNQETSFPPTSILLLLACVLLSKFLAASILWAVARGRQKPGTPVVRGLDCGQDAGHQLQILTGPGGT


Legend:
[1] = biological target: T1, mouse TREM2 on cells (mouse), Q99NH8; test: cell-based or functional assay
[2] = biological target: T1, mouse TREM2 on cells (mouse), Q99NH8; test: FACS, BWZmT2 cells
[3] = biological target: T1, mouse TREM2 on cells (mouse), Q99NH8; test: FACS, WT mouse macrophages
[4] = biological target: TREM2 protein of the 'Percent APOE binding' column of Table 9B; test: TREM2 binding to APOE with antibody; assay not described for this table
[5] = biological target: T1, mouse TREM2 on cells (mouse), Q99NH8; test: KD cell binding
[6] = biological target: recombinant human TREM2-DAP12 fusion protein expressed on cells (human); test: cell-based or functional assay
Sequence of recombinant human TREM2-DAP12 fusion protein expressed on cells (human) (chain, as listed by the source limits assumed, form in doubt): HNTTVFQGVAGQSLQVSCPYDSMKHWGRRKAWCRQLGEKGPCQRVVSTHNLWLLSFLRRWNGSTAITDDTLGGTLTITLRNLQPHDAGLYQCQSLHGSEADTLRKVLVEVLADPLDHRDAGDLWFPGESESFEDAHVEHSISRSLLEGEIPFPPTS

Binder | BWZhT2 LUC Plate-bound (FOB) [6] [FOB] | BWZhT2 LUC Solution (FOB) [6] [FOB] | BWZhT2 LUC Solution + PS (Δ Bmax) [6] | other results
3A7 (antibody, IgG1, V domains shown, modifications not checked) VL: not shown VH: EVKLEESGGGLVQPGGSMKLSCAASGFTFSDAWMGWVRQSPEKGLEWVAEIRDKVKNHATYYAESVKGRFTISRDDSKSTVYLQMNTLRADDTGIYYCRLGVFDYWGQGTTLTVSS |  |  |  | BWZmT2 LUC Plate-bound (FOB) [1]: 7.8 FOB; BWZmT2 LUC Solution (FOB) [1]: 7.18 FOB; decrease in cell surface level of TREM2 on BMDM (FACS) [1]: 58%; MFI BWZmT2 [2]: 2870 MFI; % Positive WT BMMACS [3]: 26.3%; Percent APOE binding [4]: 92.3%; Kd [5]: 5.86 nM
8A1 (antibody, IgG2a, V domains shown) VL: DIQMTQSPASLSVSVGETVTITCRTSENVYSNLAWYQQKQGKSPQLLVYAATNLADGVPSRFSASGSATQFSLKINSLQSADFGSYYCHHFWGTPYTFGGGTKLEMN VH: EVQLQQSGAELVKPGASVKISCKASGYAFSNYWMSWVKQRPGKGLEWIGQIYPGDGDTKYNGKFEGKATLTADKSSSTAYMQLSSLTSEDSAVYFCSREKGADYYGSTYSAWFSYWGQGTLVTVSA | 5.46 | 0.35 |  | 
6H2 (antibody, IgG2a, V domains shown) VL: DVLMTQTPLSLPVSLGDQASISCRSSQSIVHSNGNTYLEWYLQKPGQSPKLLIYKVSNRFSGVPDRFSGSGSGTDFTLKISRVEAEDLGVYYCFQGSHVPFTFGSGTKLEIK VH: QVQLQESGPGLVQPSQSLSIICTVSAFSLTNYAVHWIRQSPGKGLEWLGVIWSGGSTAFNAAFISRLNISKDNSKSQVFFKMNSLQSDDTAIYYCATHYYRSTYAFSYWGQGTLVTVSA | 1.1 | 3.6 | -40200 | 
3A2 (antibody, IgG1, V domains shown) VL: DVVMTQTPLSLPVSLGDQASISCRSSQTIIHSNGNTYLEWYLRKPGQSPKLLIYKVSNRFSGVPDRFSGSGSGTDFTLKISRVEAEDLGVYYCFQGSHVPYTFGGGTELEIK VH: QVQLQQSGAELVKPGASVKMSCKTSGYPFSNFWITWVKQRPGQGLVWIGDIYPGSDNSNYNEKFKTKATLTVDTSSSTAYMHLSSLTSEDSAVYFCAREAYYTNPGFAYWGQGTLVTVST | 1.07 | 0.32 |  | 

Second part, led by results:

BWZhT2 LUC Plate-bound (FOB) [6] [FOB] | BWZhT2 LUC Solution (FOB) [6] [FOB] | BWZhT2 LUC Solution + PS (Δ Bmax) [6] | Binder | other results
2.48 | 1.75 | 2930 | 9F5 (antibody, IgG1, V domains shown) VL: DVVMTQTPLSLPVSLGDQASISCRSSQSLVHSNGYTYLHWYLQKPGQSPKLLIYKVSNRFSGVPDRFSGSGSGTDFTLKISRVEADDLGVYFCSQSTRVPYTFGGGTKLEIK VH: QVQLQQSGPELVKPGASLKISCKASGYAFSSSWMNWVKQRPGKGLEWIGRIYPGDGDTNYNGEFRVRATLTADTSSTTAYMQLSSLTSEDSAVYFCARLLRNQPGESYAMDYWGQGASVTVSS | 
1.59 | 1.07 | 2660 | 9G1 (antibody, IgG1, V domains shown) VL: DVLMTQTPLSLPVSLGDQASISCRFSQSLVHSNGNTYLHWYLQKPGQSPKLLIYKVSNRFSGVPDRFSGSGSGTDFTLRISGVEAEDLGVYFCSQSTRVPPTFGGGTKLEIK VH: QVQLQQSGAELVKPGASVKLSCKASGYIFTTYWIHWVKQRPGRGPEWIGRIDPNNGDTNYNEKFKTKATLTVDKPSSTADMQLSSLTSEDSAVYYCVMTGTDFDYWGQGTTLTVSS | 
2.18 | 0.31 |  | 10A9 (antibody, IgG1, V domains shown) VL: DVVMTQTPLSLPVSLGDQASISCRSSQTIIHSNGNTYLEWYLRKPGQSPKLLIYKVSNRFCGVPDRFSGSGSGTDFTLKISRVEAEDLGVYYCFQGSHVPYTFGGGTELEIK VH: QVQLQQSGAEVVKPGASVKMSCKTSGYPFSNFWITWVKQRPGQGLVWIGDIYPGSDNRNFNERFKTKATLTVDTSSSTAYMHLSSLTSEDSAVYFCAREAYYTNPGFAYWGQGTLVTVSA | 
